Measured values reported in article PMC6193142.

Biological target: fibrillin (of fibrillin microfibrils purified from the ciliary zonule) (bovine (endogenous in ciliary zonule)) (UniProt P98133)
Test: negative-stain TEM with single-particle 3D reconstruction; microfibrils purified from bovine ciliary zonule; 2797 repeat particles; 2-fold symmetry imposed along the microfibril axis; sub-models of bead, arm and interbead; number of chains judged from volume and from fitting domain models into the interbead density

stoichiometry N (molecules per microfibril repeat): 8
Substance: fibrillin (of fibrillin microfibrils purified from the ciliary zonule) (from UniProt P98133 25-2871) (natural protein)
